Results from patent US9505841B2, “Use of an anti-Ang2 antibody” (Samsung Electronics Co., Ltd., priority 2013, dated 2016).

Legend:
[1] = system: blood vessels of normal mice; assay: Vascular toxicity in normal mice; type: in vivo, mouse; details: C57BL/6, 5 mg/kg i.p. solely or with 20 ug Ang2, every three days, 6 times
Protocol: The vascular toxicity of antibody 10D6 was tested.
In particular, 5 mg/kg of antibody 10D6 was administered to normal 6-week old C57BL/6 mice (Jackson Laboratory) solely or combined with 20 ug of Ang2 via an intraperitoneal injection every three days a total of 6 times, and then, the weight of the mice was measured. After 20 days, various tissues including thyroid, parathyroid, and adrenal gland were removed from the mice, and frozen sections were obtained therefrom. The frozen sections were immunostained using hamster anti-CD31 antibody (1:200, Millipore), and the changes were observed. A group administered with 20 ug of Ang2 solely was used for comparison.

[2] = system: Vascular endothelial cells (HUVEC); assay: BrdU proliferation assay, vascular endothelial cells; type: cell-based, human; details: 2 ug/ml Ang2 with 10 ug/ml antibody; 3 days
Protocol: The measurement assay of the proliferation of vascular and lymphatic endothelial cells was conducted using a BrdU assay kit (Roche) Cell. Vascular endothelial cells of P3˜P8 (HUVEC, ATCC) or lymphatic endothelial cells (Lonza) were placed in a collagen-coated 96-well plate (BD Bioscience) at 3000˜5000 cells/well and cultured in EGM-2 media (Lonza) for 16˜24 hours. A mixture of 2 ug/ml of Ang2 (R&D systems) and 10 ug/ml of antibody 10D6 in 2% EBM media was added to the 96-well plate washed with PBS, which was then cultured for 3 days.
For efficiency comparison, an anti-Ang2 antibody (MEDI: Medlmmune Co.) was used. For a BrdU assay, 10 ul of BrdU solution diluted at 1:1,000 was added to each well of the plate to label the cells. The cells were cultured for 1 hour and after the removal of the culture solution, 100 ul of Fixation/Denaturation solution (Roche) was added to each well and then, removed after 30-min wait. An anti-BrdU antibody (Roche) conjugated with peroxidase was diluted in a dilution buffer (Roche) at 1:100, added to each well to react for 1 hour and then, washed four times using a washing buffer (Roche). 100 ul of a TMB substrate was added thereto to react and then, absorption was measured at 450 nm using a Microplate reader (Perkin Elmer).

Tie2 receptor [3] = assay: Tie2, Akt and 42/44 phosphorylation in HUVEC: antibody 10D6 versus 10D6 Fab; type: cell-based, human; details: 60 nM 10D6 antibody or 10D6 Fab with 40 nM Ang2
Protocol: To see whether the activation of a Tie2 receptor is resulted from the dimerization of antibody 10D6, Fab fragments of antibody 10D6 were purified and then used for this experiment. The Fab fragments were obtained from antibody 10D6 using an Fab Preparation Kit (Pierce). As a digestion buffer, PBS containing 20 mM EDTA and 20 mM L-Cysteine was used, and the antibody was separated into Fab and Fc by the treatment with an immobilized papain at a room temperature for 2 hours. The Fc fragments were removed from the reaction solution using MabSelectSuRe column (GE Healthcare) to isolate and purify pure Fab fragments only.
HUVEC (ATCC) cells (1×10^6) were cultured in a 100 mm culture dish using EGM-2 (Lonza) media at 37° C. and when they reached 80˜90% confluency, the media were replaced with serum-free media (Lonza) and cultured at 37° C. for 6 to 16 hours. The dish was washed once with PBS and after the replacement with […] sodium orthovanadate (Sigma)-mixed serum free media (Lonza), they were further cultured for 10 min. After washed once with PBS, the cultured cells were treated with a mixture prepared by mixing 60 nM of 10D6 Ang2 antibody or 10D6 Fab with 40 nM of Ang2 protein (R&D systems) and letting them stand for 20 min. and further cultured for 10 min. […]

Tie2 receptor [4] = assay: Internalization of Tie2 receptor in HUVEC (confocal microscopy); type: cell-based, human
Protocol: HUVEC (ATCC) cells (1×10^6) were cultured in m-slide 8 wells (#80826, ibidi) for 24 hours and then subjected to serum starvation in serum-free EBM-2 media (Lonza) for 3 hours. 200 ng/ml of Ang1 (R&D systems) or 2ug/ml of Ang2 (R&D systems) and 10 ug/ml of antibody 10D6 were each diluted in EBM-2 media and then, the cells were treated with them and incubated according to time specified in the picture. The cells fixed with 4% formaldehyde (Sigma) was dyed first with an anti-Tie2 antibody (R&D systems) and then subjected to a secondary dye with an anti-goat Alexa 555 antibody (red, Life technology) and an anti-mouse Alexa 488 antibody (green, Life technology). The dyed cells were treated with Vectashield mounting medium with DAPI (Vector labs) and then observed using a confocal laser scanning microscopy (Carl Zeiss).

Tie2 and Akt = assay: In vivo phosphorylation of Tie2 and Akt in mouse lung tissue; details: C57BL6 mouse; 5 mg/kg antibody alone or with 20 ug Ang2, tail vein; 1 hour
Protocol: In addition, the phosphorylation of Tie2 receptor and a protein (Akt) which participates in downstream signaling of Tie2 by treating anti-Ang2 antibody was measured in animal model (in vivo). More particularly, 5 mg/kg of antibody was injected alone or together with 20 ug of Ang2 into tail vein of 7-8 week old C57BL6 mouse, and 1 hour after, lung tissue was removed. The obtained lung tissue was subjected to homogenization lysis using lysis buffer (Roche) and FastPrep kit (MP biomedicals). Activities of Tie2 and Akt in the obtained tissue lysate were measured by the above-described method.

B1: 10D6: mouse anti-Ang2 monoclonal antibody from hybridoma KCLRF-BP-00295; heavy chain variable region SEQ ID NO: 7, light chain variable region SEQ ID NO: 9 (antibody, V domains shown)
VH: DVQLQESGPGLVKPSQSLSLTCTVTGYSITSDYAWNWIRQFPGNKLEWMGYINYSGNTDYNPSLKSRSSITRDTSKNQFFLQLNSVTTGDTATYYCARGNFEGAMDYWGQGTSVTVSS
VL: SIVMTQTPKFLLVSAGDRVTITCKASQSVSNDVAWYQQKPGQSPKLLIYYASNRYPGVPDRFTGSGYGTDFTFTISTVQAEDLAVYFCQQDYSSPWTFGGGTKLEIK
modifications: Synthetic (Heavy chain variable region of an anti-Ang2 antibody); Synthetic (Light chain variable region of anti-Ang2 antibody)
In the case of B1, the “weight of normal mice” value [1] is reported as “neither abnormal weight loss/gain”, the “vascular toxicity (morphology of blood vessels, CD31 staining)” value ([1]; after 20 days) is reported as “no vascular toxicity” and the “growth of vascular endothelial cells (BrdU)” value [2] is reported as “increased”. The “phosphorylation of Tie2, Akt and 42/44” value (Tie2 receptor [3]) was “occurred”, the “time from which internalization of the Tie2 receptor started” value (Tie2 receptor [4]; 2 ug/ml Ang2 and 10 ug/ml antibody) was 30 min and the “location of internalized Tie2 and antibody” value (Tie2 receptor [4]; anti-EEA1 antibody dye) was “located in an early endosome”. The “phosphorylation of Tie2 and Akt in lung tissue in vivo” value (Tie2 and Akt) was “considerable effect of phosphorylating Tie2 and a protein, Akt”.
